Experimental data: PMC8764033, “Single-molecule analysis of specificity and multivalency in binding of short linear substrate motifs to the APC/C” (Nature Communications, 2022)

What was measured:
APC/C [1] = conditions: purified yeast components, 30 min; 20 (Mizrak & Morgan, 2019); cited from earlier work
Text: It is therefore unlikely that activator dissociation is occurring during our measurements of substrate dissociation from APC/C^Cdh1 or APC/C^Cdc20. || page 6: Cdh1 in Supplementary Figure 6. 2. Fig. 1b. List human peptide sequences used in this study. Now added to Supplementary Figure 6. 3. APC/C-Cdh1 interaction stability and life-time. The SMOR assay is dependent on a stable APC/C-Cdh1 interaction, longer than the dwell times of APC/C-activator-substrate complexes. Can the authors measure the dwell time of APC/C bound to activator? Excellent point.

APC/C [2] = conditions: APC/C^Cdc20 vs APC/C^Cdh1; cited from earlier work
Text: We find that the yeast securin ...

[3] = Aggregation / background fluorescence in SMOR assay; type: physicochemical
Method: To capture dynamic protein–protein interactions, dye-labeled substrate diluted in buffer C + BSA was added to the chamber containing immobilized proteins. Interactions were imaged by TIRF microscopy as described below. For optimal signal-to-noise ratio, peptide concentration was no greater than 1 nM. Protein substrates included Hsl1 aa 667–872 and a C-terminal HaloTag followed by a TAP tag, and were produced by translation in rabbit reticulocyte lysates using TnT Quick Coupled Transcription/Translation System (Promega) (see Supplementary Table 5 for plasmids). Protein was purified with magnetic IgG beads and labeled on the bead with JF549 or JF646 dye so that unbound dye could be washed away. Purified dye-labeled protein was then cleaved from the beads using TEV protease. Before adding substrate to the reaction chamber, oxygen scavenging reagents were added (10 nM protocatechuate-3,4-dioxygenase, 2.5 mM protocatechuic acid, and 1 mM Trolox)[41]. A detailed description of the SMOR analysis pipeline is found in Supplementary Note 1.

| Molecule | dissociation from the APC/C (in words) (APC/C [1]) | processivity of ubiquitylation (in words) (APC/C [2]) | aggregation / background (in words) [3] |
| --- | --- | --- | --- |
| Cdh1: APC/C activator subunit (protein, UniProt P53197 1-566, looked up) APC/C activator protein CDH1: MSTNLNPFMNNTPSSSPLKGSESKRVSKRPISSSSSASLLSSPSRRSRPSTVYGDRYIPSRTDIDFNSIVSISSMASVPALNPSSTEDQVEYQKERQAHETYNTLLKNELFGEMLSKDTVGSESSIDRIKNTRPSTRGNVHAENTTRHGYELERVSTPPPEAAGLEEFSPHSTPVTPRRLFTSQQDEITRPSSNSVRGASLLTYQQRKGRRLSAASLLQSQFFDSMSPVRPDSKQLLLSPGKQFRQIAKVPYRVLDAPSLADDFYYSLIDWSSTDVLAVALGKSIFLTDNNTGDVVHLCDTENEYTSLSWIGAGSHLAVGQANGLVEIYDVMKRKCIRTLSGHIDRVACLSWNNHVLTSGSRDHRILHRDVRMPDPFFETIESHTQEVCGLKWNVADNKLASGGNDNVVHVYEGTSKSPILTFDEHKAAVKAMAWSPHKRGVLATGGGTADRRLKIWNVNTSIKMSDIDSGSQICNMVWSKNTNELVTSHGYSKYNLTLWDCNSMDPIAILKGHSFRVLHLTLSNDGTTVVSGAGDETLRYWKLFDKPKAKVQPNSLIFDAFNQIR | dissociation from the APC/C was not detected in 30 min |  |  |
| Clb5: yeast S-phase cyclin, APC/C substrate protein (protein, UniProt P30283 1-435, looked up) S-phase entry cyclin-5: MGENHDHEQSIKRNSMIYNENERQLCNSNLKILQNKRALSKNDSSSKQQVQDSKPRRALTDVPVNNNPLSQNKRIVAGSKAAKVRREENIRPIVSAVQKRQIYNDRTAAEQEEEEEEEGEDDDAASIVNKKRRIDAEGVSEIVGWQDLDYVEKDDTAMVAEYSAEIFAFLYRRELETLPSHNYLLDKTSKYYLRPSMRTILVDWLVEVHEKFQCYPETLFLSINLMDRFLAKNKVTMNKLQLLAVTSLFIAAKFEEVNLPKLAEYAYITDGAASKNDIKNAEMFMLTSLEFNIGWPNPLNFLRRISKADDYDPVNRNIGKFILEYAYCCHQFIHLPPSTVSAMAMYIARRMTNRNKNELWNGTLQHYSGGIDPIHDEAFQSLCIDLVKDIASSKTHLDSLILKYKKPRYGSVYFQTFKWCTSEMHSNFQNLFNLK |  | more processive than that with APC/C^Cdh1 |  |
| securin: separase inhibitor securin, APC/C substrate protein (protein, UniProt P40316 1-373, looked up) Securin: MMPANEDKENNIVYTGNESSGINFPQTPAHLLKRSHSNILKPPVRLDQLKRDANSNNGNTLKYIQGGKEVSPTKRLHTHAQQQGRLPLAAKDNNRSKSFIFPETSNQSKDADLPQLQNTLSIRKNDQLRKLSQISRSRSRANHNDLLSNSRKLQKYGSVLGYNALPKMKSLVLKDLADSGKNEESSDDDEGNEDSESKLGKKLQSALLKQDSSDGENELNGGLGLFNEQGGLQQLIKNSTKNEQKTKNDKSDKTDDYDIEIAPQRQEPLPYVPEGYSPFQQDDIEKLKTFNSPYKLDLEDEDDTPDKVDLLPLEQIDEEGEKDETECITRNQEEGAALPLLSKNFKEVAAVPTMELVYSEEGLDPEELEDLVT |  | more processive than that with APC/C^Cdh1 | tendency to aggregate and create excessive background fluorescence |
